The values below come from patent US20080044413A1.

This assay deals with human EphA2 (human) (UniProt P29317). As to the kind of experiment: cell-based or functional assay.

B1: EphA2-BiTE EA2 (VH/VL) × deimmunized anti-CD3 (VH/VL) (bispecific antibody, part only; not given: anti-CD3 scFv, part only)
chain, part: DVKLVESGGGLVKPGGSLKLSCAASGFTFSSYTMSWVRQTPEKRLEWVATISSGGTYTYYPDSVKGRFTISRDNAKNTLYLQMSSLKSEDTAMYYCTREAIFTYWGQGTLVTVSAGGGGSGGGGSGGGGSDIKMTQSPSSMYASLGERVTITCKASQDINNYLSWFQQKPGKSPKTLIYRANRLVDGVPSRFSGSGSGQDYSLTISSLEYEDMGIYYCLKYDEFPYTFGGGTKLEIKGGGGSHHHHHH
As for B1, the EC50 of redirected lysis, 51Cr release, A549 was 184 ng/mL; the EC50 of redirected lysis, 51Cr release, A549, second experiment came out at 163 ng/mL; the EC50 of redirected lysis, 51Cr release, MDA MB231 is 55.9 ng/mL; the EC50 of redirected lysis, 51Cr release, MDA MB231, second experiment was 72.1 ng/mL.

B2: EphA2-BiTE EA2 (VL/VH) × deimmunized anti-CD3 (VH/VL) (bispecific antibody, part only; not given: anti-CD3 scFv, part only)
chain, part: DIKMTQSPSSMYASLGERVTITCKASQDINNYLSWFQQKPGKSPKTLIYRANRLVDGVPSRFSGSGSGQDYSLTISSLEYEDMGIYYCLKYDEFPYTFGGGTKLEIKGGGGSGGGGSGGGGSDVKLVESGGGLVKPGGSLKLSCAASGFTFSSYTMSWVRQTPEKRLEWVATISSGGTYTYYPDSVKGRFTISRDNAKNTLYLQMSSLKSEDTAMYYCTREAIFTYWGQGTLVTVSAGGGGSHHHHHH
B2: the EC50 of redirected lysis, 51Cr release, A549, NK-depleted PBMC, E:T 10:1, 18 h was determined as 170 ng/mL; the EC50 of redirected lysis, 51Cr release, MDA MB231, NK-depleted PBMC, E:T 10:1, 18 h was determined as 53.8 ng/mL; the EC50 of redirected lysis, 51Cr release, MDA MB231, second experiment worked out at 86 ng/mL.
